Here are results for 20 molecules from patent US20260258115A1 (MAPP BIOPHARMACEUTICAL, published 2026).

As usually defined, the Kd is the equilibrium constant for the complex coming apart. Higher therefore signals weaker binding.

For experiment [1], the target named is T1, RSV postfusion F (postF), subtype A (respiratory syncytial virus subtype A, UniProt P03420 26-513).
T1 construct: also called Postfusion subtype A; F deltaFP
Kind of experiment: BLI.

The target of experiment [2] is T2, RSV prefusion F (preF), subtype B (respiratory syncytial virus subtype B).
T2 construct: also called Prefusion subtype B
The experiment can be described thus: BLI, IgG.

B1: ADI-19454 (antibody, V domains shown)
VH: EVQLLESGGGLVKPGGSLRLSCAASGFTFSSYSMNWVRQAPGKGLEWVSSISSSSSYIYYADSVKGRFTISRDNAKNSLYLQMNSLRAEDTAVYYCARGYCSGGSCYSHYFQHWGQGTLVTVSS
VL: QSVLTQPASVSGSPGQSITISCTGTSSDVGGYNYVSWYQQHPGKAPKLMIYDVSNRPSGVSNRFSGSKSGNTASLTISGLQAEDEADYYCSSYTSSSTVVFGGGTKVTVL
notes: full-length IgG
In the case of B1, the binding result in experiment [1] is “no binding”. Besides, the affinity in experiment [2], expressed as Kd, was 15.7 nM.

B2: ADI-24826 (antibody, V domains shown)
VH: EVQLVESGGGLVKPGGSLRLSCAASGFTFSSYSMNWVRQAPGKGLEWVSSISSSSSYIYYADSVKGRFTISRDNAKNSLYLQMNSLRAEDTAVYYCARDRGYGSGALDYWGQGTLVTVSS
VL: QPVLTQPASVSGSPGQSITISCTGTSSDVGGYNYVSWYQQHPGKAPKLMIYDVSNRPSGVSNRFSGSKSGNTASLTISGLQAEDEADYYCSSYTSSSTVVFGGGTKLTVL
notes: full-length IgG; also called Ab 388
In the case of B2, the binding result in experiment [1] is on record as “no binding”. In experiment [2], the affinity, expressed as Kd, was 9.03 nM.

B3: ADI-24833 (antibody, V domains shown)
VH: QVQLVESGGGLVKPGGSLRLSCAASGFTFSSYSMNWVRQAPGKGLEWVSSISSSSSYIYYADSVKGRFTISRDNAKNSLYLQMNSLRAEDTAVYYCARALTYYYDSSGHGADYWGQGTLVTVSS
VL: QSVVTQPPSVSGAPGQRVTISCTGSSSNIGAGYDVHWYQQLPGTAPKLLIYGNSNRPSGVPDRFSGSKSGTSASLAITGLQAEDEADYYCQSYDSSLSVVFGGGTKLTVL
notes: full-length IgG
As for B3, the binding result in experiment [1] is “no binding”. Moreover, the affinity in experiment [2], expressed as Kd, was 11.4 nM.

B4: ADI-24847 (antibody, V domains shown)
VH: EVQLVESGGGLVKPGGSLRLSCAASGFTFSSYSMNWVRQAPGKGLEWVSSISSSSNYIYYADSVKGRFTISRDNAKNSLYLQMNSLRAEDTAVYYCARDRIAAYTFDYWGQGTLVTVSS
VL: QSVVTQPPSVSGAPGQRVTISCTGSSSNIGAGYDVHWYQQLPGTAPKLLIYGNSNRPSGVPDRFSGSKSGTSASLAITGLQAEDEADYYCQSYDSSLPYVFGTGTKVTVL
notes: full-length IgG
In the case of B4, the binding result in experiment [1] is “no binding”. The molecule further had a Kd in experiment [2] of 40 nM.

B5: ADI-19450 (antibody, V domains shown)
VH: EVQLLESGGGLVQPGGSLRLSCAASGFTFSSYWMHWVRQAPGKGLVWVSRINSDGSSTSYADSVKGRFTISRDNAKNTLYLQMNSLRAEDTAVYYCARAPISILRFLGGYFDYWGQGTLVTVSS
VL: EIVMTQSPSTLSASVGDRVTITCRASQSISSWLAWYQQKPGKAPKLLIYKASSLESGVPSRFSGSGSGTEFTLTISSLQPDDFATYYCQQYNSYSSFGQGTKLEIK
notes: full-length IgG; also called Ab 160
Regarding B5, the binding result in experiment [1] is on record as “no binding”. Also, the dissociation constant (Kd) in experiment [2] worked out at 38.6 nM.

B6: ADI-19430 (antibody, V domains shown)
VH: QVQLVQSGAEVKKPGSSVKVSCKASGGTFSSYTISWVRQAPGQGLEWMGRIIPILGIANYAQKFQGRVTITADKSTSTAYMELSSLRSEDTAVYYCARDGGPYYYDSSGYYRLDYWGQGTLVTVSS
VL: DIRMTQSPLSLPVTLGQPASISCRSSQSLVYSDGNTYLNWFQQRPGQSPRRLIYKVSNRDSGVPDRFSGSGSGTDFTLKISRVEAEDVGVYYCMQGTHWTYTFGQGTKLEIK
notes: full-length IgG
As to B6, the binding result in experiment [1] is “no binding”. The molecule also yielded a Kd in experiment [2] of 16.8 nM.

B7: ADI-24811 (antibody, V domains shown)
VH: QVQLVQSGAEVKKPGASVKVSCKASGYTFTSYDINWVRQATGQGLEWMGWMNPNSGNTGYAQKFQGRVTMTRNTSISTAYMELSSLRSEDTAVYYCARGLPGQWLEYYFDYWGQGTLVTVSS
VL: SYVLTQPPSVSVAPGKTARITCGGNNIGSKSVHWYQQKPGQAPVLVIYYDSDRPSGIPERFSGSNSGNTATLTISRVEAGDEADYYCQVWDSSSDHPVFGGGTKVTVL
notes: full-length IgG
B7: in experiment [1], the binding result was “no binding”. The molecule further came in with a Kd in experiment [2] of 4.29 nM.

B8: ADI-24836 (antibody, V domains shown)
VH: EVQLLESGGGLVQPGRSLRLSCAASGFTFDDYAMHWVRQAPGKGLEWVSGISWNSGSIGYADSVKGRFTISRDNAKNSLYLQMNSLRAEDTALYYCAKDLRGGTYYYYGMDVWGQGTTVTVSS
VL: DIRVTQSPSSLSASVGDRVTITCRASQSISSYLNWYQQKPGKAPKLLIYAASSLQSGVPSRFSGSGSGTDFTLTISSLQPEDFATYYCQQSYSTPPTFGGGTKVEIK
notes: full-length IgG
For the molecule B8, in experiment [1], the binding result is reported as “no binding”. Besides, binding in experiment [2] was put at a Kd of 3.44 nM.

B9: ADI-24820 (antibody, V domains shown)
VH: QVQLVQSGAEVKKPGSSVKVSCKASGGTFSSYTISWVRQAPGQGLEWMGRIIPILGIANYAQKFQGRVTITADKSTSTAYMELSSLRSEDTAVYYCARDPPYLRAFDIWGQGTTVTVSS
VL: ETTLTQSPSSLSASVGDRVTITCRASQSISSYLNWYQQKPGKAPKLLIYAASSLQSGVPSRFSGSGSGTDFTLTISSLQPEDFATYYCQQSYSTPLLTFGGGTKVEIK
notes: full-length IgG
For the molecule B9, in experiment [1], the binding result is listed as “no binding”. Moreover, the affinity in experiment [2], expressed as Kd, was 38.5 nM.

B10: ADI-19460 (antibody, V domains shown)
VH: QVQLQQWGAGLLKPSETLSLTCAVYGGSFSGYYWSWIRQPPGKGLEWIGEINHSGSTNYNPSLKSRVTISVDTSKNQFSLKLSSVTAADTAVYYCARGGITAYYYYYGMDVWGQGTTVTVSS
VL: not shown
notes: full-length IgG
Regarding B10, the binding result in experiment [1] is recorded as “no binding”. The molecule also displayed an equilibrium dissociation constant (Kd) in experiment [2] of 6.01 nM.

B11: ADI-25557 (antibody, V domains shown)
VH: EVQLLESGGGLVKPGGSLRLSCAASGFTFSSYSMNWVRQAPGKGLEWVSSISSSSSYIYYADSVKGRFTISRDNAKNSLYLQMNSLRAEDTAVYYCARGYGSGSYLDYFDYWGQGTLVTVSS
VL: QPGLTQPPSVSGAPGQRVTISCTGSSSNIGAGYDVHWYQQLPGTAPKLLIYGNSNRPSGVPDRFSGSKSGTSASLAITGLQAEDEADYYCQSYDSSLSGFYVFGTGTKLTVL
notes: full-length IgG
Regarding B11, in experiment [1], the binding result is “no binding”. Besides, in experiment [2], the Kd amounted to 33.3 nM.

B12: ADI-19507 (antibody, V domains shown)
VH: EVQLVESGGGLVKPGGSLRLSCAASGFTFSSYSMNWVRQAPGKGLEWVSSISSSSSYIYYADSVKGRFTISRDNAKNSLYLQMNSLRAEDTAVYYCAREVLTGDYLGWFDPWGQGTLVTVSS
VL: QSVVTQPPSVSGAPGQRVTISCTGSSSNIGAGYDVHWYQQLPGTAPKLLIYGNSNRPSGVPDRFSGSKSGTSASLAITGLQAEDEADYYCQSYDSSHWVFGGGTKLTVL
notes: full-length IgG
On to B12, for which the binding result in experiment [1] is “no binding”. The molecule further gave a dissociation constant (Kd) in experiment [2] of 10.1 nM.

B13: ADI-19465 (antibody, V domains shown)
VH: EVQLVESGGGLVKPGGSLRLSCAASGFTFSSYSMNWVRQAPGKGLEWVSSISSSSSYIYYADSVKGRFTISRDNAKNSLYLQMNSLRAEDTAVYYCAREGSSSWYYFDYWGQGTLVTVSS
VL: QSVVTQPPSVSGAPGQRVTISCTGSSSNIGAGYDVHWYQQLPGTAPKLLIYGNSNRPSGVPDRFSGSKSGTSASLAITGLQAEDEADYYCQSYDSSLSGPWVFGGGTKLTVL
notes: full-length IgG; also called Ab 170
On to B13, for which the binding result in experiment [1] is recorded as “no binding”. This molecule also came in with a dissociation constant (Kd) in experiment [2] of 19.4 nM.

B14: ADI-19449 (antibody, V domains shown)
VH: EVQLVESGGGLVKPGGSLRLSCAASGFTFSSYSMNWVRQAPGKGLEWVSSISSSSSYIYYADSVKGRFTISRDNAKNSLYLQMNSLRAEDTAVYYCARDSGSYLSYAFDIWGQGTMVTVSS
VL: SYELTQPPSVSGAPGQRVTISCTGSSSNIGAGYDVHWYQQLPGTAPKLLIYGNSNRPSGVPDRFSGSKSGTSASLAITGLQAEDEADYYCQSYDSSLSGYVFGTGTKVTVL
notes: full-length IgG
For B14, the binding result in experiment [1] was “no binding”. In addition, the Kd in experiment [2] came to 26 nM.

B15: ADI-19457 (antibody, V domains shown)
VH: EVQLLESGGGLVKPGGSLRLSCAASGFTFSSYSMNWVRQAPGKGLEWVSSISSSSSYIYYADSVKGRFTISRDNAKNSLYLQMNSLRAEDTAVYYCARQGYCSGGSCYHIDYWGQGTLVTVSS
VL: QSVVTQPPSVSGAPGQRVTISCTGSSSNIGAGYDVHWYQQLPGTAPKLLIYGNSNRPSGVPDRFSGSKSGTSASLAITGLQAEDEADYYCQSYDSSLSGWVFGGGTKLTVL
notes: full-length IgG
On to B15, for which the binding result in experiment [1] was “no binding”. For the same molecule, binding in experiment [2] was put at a Kd of 16.7 nM.

B16: ADI-24840 (antibody, V domains shown)
VH: EVQLLESGGGLVKPGGSLRLSCAASGFTFSSYSMNWVRQAPGKGLEWVSSISSSSSYIYYADSVKGRFTISRDNAKNSLYLQMNSLRAEDTAVYYCARDQVYSYGYYFDYWGQGTLVTVSS
VL: QSVLAQPPSVSGAPGQRVTISCTGSSSNIGAGYDVHWYQQLPGTAPKLLIYGNSNRPSGVPDRFSGSKSGTSASLAITGLQAEDEADYYCQSYDSSLSGSHVVFGGGTKLTVL
notes: full-length IgG
For the molecule B16, in experiment [1], the binding result is reported as “no binding”. The Kd in experiment [2] came to 7.8 nM.

B17: ADI-25472 (antibody, V domains shown)
VH: EVQLVESGGGLVKPGGSLRLSCAASGFTFSSYSMNWVRQAPGKGLEWVSSISSSSSYIYYADSVKGRFTISRDNAKNSLYLQMNSLRAEDTAVYYCARDDSSSWYYFDYWGQGTLVTVSS
VL: QSVLTQPPSVSGAPGQRVTISCTGSSSNIGAGYDVHWYQQLPGTAPKLLIYGNSNRPSGVPDRFSGSKSGTSASLAITGLQAEDEADYYCQSYDSSLSGYVFGTGTKVTVL
notes: full-length IgG
Consider B17, for which, in experiment [1], the binding result was “no binding”. In addition, the Kd in experiment [2] is 37.7 nM.

B18: ADI-24815 (antibody, V domains shown)
VH: EVQLVESGGGLVKPGGSLRLSCAASGFTFSSYSMNWVRQAPGKGLEWVSSISSSSSYIYYADSVKGRFTISRDNAKNSLYLQMNSLRAEDTAVYYCAREGYSSSSGYYYMDVWGKGTTVTVSS
VL: QSVLTQPPSVSGAPGQRVTISCTGSSSNIGAGYDVHWYQQLPGTAPKLLIYGNSNRPSGVPDRFSGSKSGTSASLAITGLQAEDEADYYCQSYDSSLSGSVFGTGTKVTVL
notes: full-length IgG
As to B18, the binding result in experiment [1] is “no binding”. In experiment [2], this molecule returned a Kd of 29.1 nM.

B19: ADI-22771 (antibody, V domains shown)
VH: EVQLVESGGGLVKPGGSLRLSCAASGFTFSSYSMNWVRQAPGKGLEWVSSISSSSSYIYYADSVKGRFTISRDNAKNSLYLQMNSLRAEDTAVYYCARDYSSGWYYFDYWGQGTLVTVSS
VL: QPVLTQPPSVSGAPGQRVTISCTGSSSNIGAGYDVHWYQQLPGTAPKLLIYGNSNRPSGVPDRFSGSKSGTSASLAITGLQAEDEADYYCQSYDSSLSGSVFGGGTKLTVL
notes: full-length IgG; also called Ab 350
As to B19, the binding result in experiment [1] was “no binding”. Moreover, binding in experiment [2] was characterised by a dissociation constant (Kd) of 9.41 nM.

B20: ADI-24848 (antibody, V domains shown)
VH: EVQLVESGGGLVKPGGSLRLSCAASGFTFSSYSMNWVRQAPGKGLEWVSSISSSSSYIYYADSVKGRFTISRDNAKNSLYLQMNSLRAEDTAVYYCARDTVVAGIYFDYWGQGTLVTVSS
VL: QSVLTQPPSVSGAPGQRVTISCTGSSSNIGAGYDVHWYQQLPGTAPKLLIYGNSNRPSGVPDRFSGSKSGTSASLAITGLQAEDEADYYCQSYDSSLSGVVFGGGTKLTVL
notes: full-length IgG
Turning to B20, in experiment [1], the binding result is “no binding”. The molecule also had a dissociation constant (Kd) in experiment [2] of 35.6 nM.
